For assay [1], the target named is mouse albumin (mouse, UniProt P07724 25-608). Nature of the assay: SA08b binding assay: competition with biotinylated SA08b for immobilized albumin. Here is the method:
(§1) Plates were blocked using Blocker Casein (Pierce Chemical, Rockford, Ill.) for 1 hr, at 25° C. […] The amount of HRP bound was measured using ABTS/H₂O₂ substrate and monitoring the change at 405 nm.

Assay [2] has as its target T1, rat albumin (rat, UniProt P02770 25-608). The assay is described as above. Here is the method: as §1
For assay [3], the target named is T2, rabbit albumin (rabbit, UniProt P49065 25-608). Described as above. Here is the method: as §1
T2 sequence (P49065 25-608 limits assumed): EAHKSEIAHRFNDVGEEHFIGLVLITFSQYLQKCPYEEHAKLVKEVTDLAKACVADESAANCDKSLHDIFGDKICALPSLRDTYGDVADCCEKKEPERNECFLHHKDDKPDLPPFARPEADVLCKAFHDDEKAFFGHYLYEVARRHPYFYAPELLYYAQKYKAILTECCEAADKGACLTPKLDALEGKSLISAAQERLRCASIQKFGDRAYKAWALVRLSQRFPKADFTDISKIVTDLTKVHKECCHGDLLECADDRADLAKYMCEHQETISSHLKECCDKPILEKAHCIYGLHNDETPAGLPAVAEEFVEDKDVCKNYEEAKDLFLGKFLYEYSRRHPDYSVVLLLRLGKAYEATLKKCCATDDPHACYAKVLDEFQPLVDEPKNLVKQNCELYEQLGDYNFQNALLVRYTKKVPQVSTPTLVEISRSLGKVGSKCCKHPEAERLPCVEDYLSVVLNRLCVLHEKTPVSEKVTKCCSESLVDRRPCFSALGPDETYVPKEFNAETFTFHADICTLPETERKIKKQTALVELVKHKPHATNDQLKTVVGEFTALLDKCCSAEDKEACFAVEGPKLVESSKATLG
Assay [4] has as its target T3, IgG-Fc (UniProt P01857-1 108-330 = IgG part, limits assumed).
T3 construct: domain: IgG-Fc; also called biotinylated-IgG-Fc; biotin-IgG-Fc
Nature of the assay: phage ELISA, M13/gIII display. On the technique in general: ELISA stands for enzyme-linked immunosorbent assay.

For assay [5], the target named is T4, ovalbumin (UniProt P01012 2-386).
T4 sequence (looked up): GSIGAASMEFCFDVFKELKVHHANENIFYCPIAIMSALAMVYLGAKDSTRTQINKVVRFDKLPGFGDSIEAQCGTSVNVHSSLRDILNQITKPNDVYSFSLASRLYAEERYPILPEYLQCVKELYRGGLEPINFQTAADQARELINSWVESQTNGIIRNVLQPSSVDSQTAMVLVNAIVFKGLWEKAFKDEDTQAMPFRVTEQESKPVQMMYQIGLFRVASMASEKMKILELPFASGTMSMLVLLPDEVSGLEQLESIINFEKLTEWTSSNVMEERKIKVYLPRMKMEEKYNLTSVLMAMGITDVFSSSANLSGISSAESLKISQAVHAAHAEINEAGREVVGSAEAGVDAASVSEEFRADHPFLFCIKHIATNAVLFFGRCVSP
Nature of the assay: phage ELISA, photograph of the plate.

Assay [6] addresses T3, IgG-Fc. Kind of assay: phage ELISA, M13/gIII display, ALA scan.
Assay [7] deals with T1, rat albumin. Nature of the assay: phage ELISA. Here is the method:
(§2) Phage ELISA—Phage clones (˜10¹¹ phage) were added to plates coated with rat, rabbit or human albumin. The microtiter plate was washed with wash buffer and bound phage were detected with HRP/Anti-M13 Conjugate. The amount of HRP bound was measured using ABTS/H₂O₂ substrate and monitoring the change at 405 nm.
(§3) This was tested using a phage ELISA.

The target in assay [8] is T5, human albumin (human, UniProt P02768 25-609). Kind of assay: phage ELISA. How it is done: as §2, §3
The target of assay [9] is T2, rabbit albumin. Kind of assay: phage ELISA. Here is the method:
as §2

For assay [10], the target named is T5, human albumin. Kind of assay: phage ELISA. How it is done:
as §2
This is another data set of the same source.

Assay [11] deals with T1, rat albumin. Nature of the assay: phage ELISA. Here is the method:
as §2
The source holds these as a separate data set.

The values below come from patent US20040253247A1 (Genentech, published 2004).

Like-named read-outs stand apart in the source and are kept apart here. Bridges are numbered along the chain shown (N, C = ends). Where no end group is shown, it is not given here. code n = not defined here

T1 sequence (P02770 25-608 limits assumed): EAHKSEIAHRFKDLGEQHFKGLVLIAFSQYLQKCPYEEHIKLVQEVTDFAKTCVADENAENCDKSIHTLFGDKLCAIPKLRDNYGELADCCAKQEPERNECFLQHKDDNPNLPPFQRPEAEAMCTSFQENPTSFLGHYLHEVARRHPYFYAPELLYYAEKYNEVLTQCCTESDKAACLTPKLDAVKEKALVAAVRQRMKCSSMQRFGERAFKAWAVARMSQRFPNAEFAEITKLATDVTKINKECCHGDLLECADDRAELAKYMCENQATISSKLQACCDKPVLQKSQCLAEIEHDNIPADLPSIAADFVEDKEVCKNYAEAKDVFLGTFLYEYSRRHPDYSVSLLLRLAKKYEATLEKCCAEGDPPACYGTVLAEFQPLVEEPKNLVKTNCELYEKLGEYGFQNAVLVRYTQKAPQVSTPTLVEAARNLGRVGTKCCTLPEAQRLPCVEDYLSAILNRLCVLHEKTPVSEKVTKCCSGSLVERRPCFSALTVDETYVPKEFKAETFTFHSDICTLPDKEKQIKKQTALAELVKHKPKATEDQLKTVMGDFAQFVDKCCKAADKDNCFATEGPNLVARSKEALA
Chain of mouse albumin (P07724 25-608 limits assumed): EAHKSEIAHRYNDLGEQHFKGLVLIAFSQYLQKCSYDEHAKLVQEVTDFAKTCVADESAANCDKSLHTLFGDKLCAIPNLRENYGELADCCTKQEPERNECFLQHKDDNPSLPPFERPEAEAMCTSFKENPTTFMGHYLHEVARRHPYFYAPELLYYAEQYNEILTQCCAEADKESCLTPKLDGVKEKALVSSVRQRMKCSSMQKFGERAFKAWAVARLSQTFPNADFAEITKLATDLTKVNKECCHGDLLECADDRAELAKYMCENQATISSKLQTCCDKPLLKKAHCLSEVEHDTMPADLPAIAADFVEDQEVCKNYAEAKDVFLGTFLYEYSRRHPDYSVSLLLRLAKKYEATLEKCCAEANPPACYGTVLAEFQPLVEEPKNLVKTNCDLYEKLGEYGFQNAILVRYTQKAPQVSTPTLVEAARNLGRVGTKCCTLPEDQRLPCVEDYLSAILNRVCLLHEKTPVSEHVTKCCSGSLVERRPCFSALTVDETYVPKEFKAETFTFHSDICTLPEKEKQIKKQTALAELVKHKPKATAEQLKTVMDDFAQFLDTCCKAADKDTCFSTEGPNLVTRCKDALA

B1: SA04 (peptide)
peptide: DICLPRWGCLW-{code n}
modifications: disulfide 3-9 (inferred); reading uncertain; also: printed as Asp-Ile-Cys-Leu-Pro-Arg-Trp-Gly-Cys-Leu-Trp
notes: synthesized peptide
Usually IC50 stands for the concentration that gives 50% inhibition. Turning to B1, the IC50 in assay [1] came to 40 nM; in [2], 787 nM; in [3], 8540 nM.

B2: SA12 (peptide)
peptide: Ac-MEDICLPRWGCLWED-{code n}
modifications: disulfide 5-11 (inferred); reading uncertain; also: printed as Met-Glu-Asp-Ile-Cys-Leu-Pro-Arg-Trp-Gly-Cys-Leu-Trp-Glu-Asp
notes: synthesized peptide
As to B2, the IC50 in [1] came out at 13 nM; in [2], 205 nM; in assay [3] it was 1760 nM.

B3: SA09 (peptide)
peptide: Ac-EDICLPRWGCLWEDD-{code n}
modifications: disulfide 4-10 (inferred); reading uncertain; also: printed as Glu-Asp-Ile-Cys-Leu-Pro-Arg-Trp-Gly-Cys-Leu-Trp-Glu-Asp-Asp
notes: synthesized peptide
B3: the IC50 turned out to be 6 nM in assay [1], 258 nM in assay [2] and 1690 nM in assay [3].

B4: phage clone WEEDCAWHLGELVWCAEFDE (peptide)
peptide: WEEDCAWHLGELVWCAEFDE
notes: M13/gIII phage display; Secondary Optimization
For orientation: EC50 means the concentration at which the effect is half-maximal. B4 showed an EC50 in assay [4] of 44 nM.

B5: RB-R8 (peptide)
peptide: QGLIGDICLPRWGCLWGDSV
modifications: not fully specified (bridges); printed as Gln-Gly-Leu-Ile-Gly-Asp-Ile-Cys-Leu-Pro-Arg-Trp-Gly-Cys-Leu-Trp-Gly-Asp-Ser-Val; cysteine pairing not given here
notes: phage clone, Library RB
Turning to B5, the binding result in assay [5] is recorded as “no binding”.

B6: SA11 (peptide)
peptide: Ac-MEDICLPRWGCLWEDD-{code n}
modifications: disulfide 5-11 (inferred); reading uncertain; also: printed as Met-Glu-Asp-Ile-Cys-Leu-Pro-Arg-Trp-Gly-Cys-Leu-Trp-Glu-Asp-Asp
notes: synthesized peptide
Take B6: the IC50 in [1] is 17 nM; in assay [2] it was 232 nM; in [3], 1210 nM.

B7: phage clone AEADCAWHLGELVWCTKVEE (peptide)
peptide: AEADCAWHLGELVWCTKVEE
notes: M13/gIII phage display; ALA Scan on Phage
In turn, B7 came in with an EC50 in assay [6] of 20 nM.

B8: phage clone WEADCAWHLAELVWCTKVEE (peptide)
peptide: WEADCAWHLAELVWCTKVEE
notes: as for B7
The molecule B8 had an EC50 in assay [6] of 12 nM.

B9: phage clone WEAACSWHLGELVWCTKVEE (peptide)
peptide: WEAACSWHLGELVWCTKVEE
notes: as for B7
In assay [6], B9 displayed an EC50 of 10 nM.

B10: phage clone WEADCAWHLGELVWCTKVAE (peptide)
peptide: WEADCAWHLGELVWCTKVAE
notes: as for B7
For B10, in assay [6], the EC50 was 4 nM.

B11: phage clone WAADCAWHLGELVWCTKVEE (peptide)
peptide: WAADCAWHLGELVWCTKVEE
notes: as for B7
B11: in assay [6], the EC50 came out at 34 nM.

B12: phage clone WEADCAWHLGELVWCTAVEE (peptide)
peptide: WEADCAWHLGELVWCTAVEE
notes: as for B7
Regarding B12, in assay [6], the midpoint of the response, the EC50, lay at 10 nM.

B13: phage clone WEADCAWHAGELVWCTKVEE (peptide)
peptide: WEADCAWHAGELVWCTKVEE
notes: as for B7
The molecule B13 had a concentration giving a half-maximal response (EC50) in [6] of 56 nM.

B14: phage clone WEADCAWHLGELVWCTKAEE (peptide)
peptide: WEADCAWHLGELVWCTKAEE
notes: as for B7
In [6], B14 yielded an EC50 of 8 nM.

B15: phage clone WEADCAWALGELVWCTKVEE (peptide)
peptide: WEADCAWALGELVWCTKVEE
notes: as for B7
On to B15, for which the EC50 in [6] is 139 nM.

B16: phage clone WEADCAWHLGELAWCTKVEE (peptide)
peptide: WEADCAWHLGELAWCTKVEE
notes: as for B7
In [6], B16 returned an EC50 of 4670 nM.

B17: phage clone WEADCAWHLGALVWCTKVEE (peptide)
peptide: WEADCAWHLGALVWCTKVEE
notes: as for B7
In the case of B17, the midpoint of the response in assay [6], the EC50, lay at 11 nM.

B18: phage clone WEADCAWHLGELVWCAKVEE (peptide)
peptide: WEADCAWHLGELVWCAKVEE
notes: as for B7
As for B18, the 50% effective concentration (EC50) in assay [6] stood at 101 nM.

B19: phage clone WEADCAWHLGELVACTKVEE (peptide)
peptide: WEADCAWHLGELVACTKVEE
notes: as for B7
On to B19, for which the EC50 in assay [6] is 3380 nM.

B20: phage clone WEAACAWHLGELVWCTKVEE (peptide)
peptide: WEAACAWHLGELVWCTKVEE
notes: as for B7
For the molecule B20, the EC50 in assay [6] was 55 nM.

B21: phage clone WEADCAWHLGEAVWCTKVEE (peptide)
peptide: WEADCAWHLGEAVWCTKVEE
notes: as for B7
The molecule B21 yielded an EC50 in assay [6] of 1890 nM.

B22: phage clone WEADCAAHLGELVWCTKVEE (peptide)
peptide: WEADCAAHLGELVWCTKVEE
notes: as for B7
Molecule B22 came in with an EC50 in assay [6] of 798 nM.

B23: phage clone WEPDCAWHLGELVWCTKVEE (peptide)
peptide: WEPDCAWHLGELVWCTKVEE
notes: as for B7
Take B23: in assay [6], the EC50 stood at 36 nM.
On to MDELAFYCGIWECLMHQEQK (phage clone selected on rabbit SA) [BB], for which the binding result in assay [7] and in assay [8] was “no binding” each time.
For the molecule QRHPEDICLPRWGCLWGDDD (not fully specified (bridges); cysteine pairing not given here, phage clone, Library RB) [RB-H1], the binding result in assay [5] is given as “no binding”.

B24: phage clone KEASCAWHLGELVWCSEVEE (peptide)
peptide: KEASCAWHLGELVWCSEVEE
notes: as for B4
Regarding B24, the EC50 in assay [4] turned out to be 130 nM.

B25: SA07 (peptide)
peptide: QGLIGDICLPRWGCLWGDSV-{code n}
modifications: disulfide 8-14 (inferred); reading uncertain; also: printed as Gln-Gly-Leu-Ile-Gly-Asp-Ile-Cys-Leu-Pro-Arg-Trp-Gly-Cys-Leu-Trp-Gly-Asp-Ser-Val
notes: synthesized peptide
On to B25, for which the IC50 in [1] worked out at 6 nM; in assay [2], 35 nM; in assay [3], 30 nM.

B26: phage clone GEEDCAWHLGELVWCTDVED (peptide)
peptide: GEEDCAWHLGELVWCTDVED
notes: as for B4
Regarding B26, the EC50 in [4] is 52 nM.

B27: phage clone EVEDCAYHLGELVWCSDLEG (peptide)
peptide: EVEDCAYHLGELVWCSDLEG
notes: as for B4
Molecule B27 yielded an EC50 in assay [4] of 82 nM.
Consider DLCDVDFCWF (phage clone selected on rabbit SA) [BC], for which the binding result in assay [7] and in assay [8] was “no binding” throughout.
On to GENWCDSTLMAYDLCGQVNM (phage clone selected on rabbit SA) [BA], for which the binding result in [7] and in assay [8] was “no binding” each time.
Take DTCADLVRLGLECWA (phage clone, Library RD) [RD-R2]: the binding result in assay [5], in [9] and in assay [10] was “no binding” throughout.
For the molecule DSEVCYFPGICWSGT (phage clone, Library HBC) [HBC-H1], the binding result in [5], in assay [11] and in assay [9] was “no binding” each time.
In the case of HSQMEDICLPRWGCLWGDEL (not fully specified (bridges); cysteine pairing not given here, phage clone, Library RB) [RB-B8], the binding result in assay [5] was “no binding”.

B28: SA05 (peptide)
peptide: MEDICLPRWGCLWED-{code n}
modifications: disulfide 5-11 (inferred); reading uncertain; also: printed as Met-Glu-Asp-Ile-Cys-Leu-Pro-Arg-Trp-Gly-Cys-Leu-Trp-Glu-Asp
notes: synthesized peptide
As to B28, the IC50 in assay [1] turned out to be 6 nM; in assay [2], 161 nM; in assay [3], 804 nM.

B29: phage clone EVADCSWHLGELVWCTEGEF (peptide)
peptide: EVADCSWHLGELVWCTEGEF
notes: as for B4
In assay [4], B29 came in with an EC50 of 54 nM.
